Target: NELF complex WT (NELF-A/B/D/E) (human, UniProt Q9H3P2;Q8WX92;Q8IXH7;P18615 1-528;1-628;1-590;1-380)
Test: fluorescence anisotropy

CCAGAUCUGAGCCUGGGAGCUCUCUGG (structured_RNA) [HIV-1 TAR stem loop]: binds.

Source: publication doi:10.1101/2024.08.29.610268
